Among the data in patent publication US20250051443A1 (NATIONAL RESEARCH COUNCIL OF CANADA, published 2025) are MFI, Kd and % residual fluorescence of labeled mAb values, retold here.

The target in assay [1] is T1, human CD3 (human, UniProt P07766 23-207; P09693 23-182; P04234 22-171). Description: flow cytometry, negative control on CD3+ Jurkat cells.
Assay [2] deals with T1, human CD3. Description: apparent KD (KDapp), flow cytometry titration of the AF488-labeled mAb on Jurkat cells.
Assay [3] deals with T1, human CD3. Description: flow competition on Jurkat, 100 nM unlabeled mAb; competitor AF488-UCHT1 5 nM. On the procedure: (§1) In order to evaluate whether anti-CD3 monoclonal antibodies bind to the same epitope region, flow cytometry competition experiments on Jurkat cells were performed.
(§2) To that effect, a fixed concentration of the indicated AF488-labeled mAb were incubated with 100 nM of unlabeled monoclonal antibodies to assess if their binding capacity was impaired in presence of unlabeled mAbs. […] The AF488-OKT3 mIgG2b was labeled in-house using AlexaFluor488 protein labelling kit (Invitrogen #A10235) following manufacturer's instruction. The free dye removal step was done using Zeba™ Spin Desalting Columns, 7K MWCO (Thermo Scientific #89890). The final product was analyzed by UPLC-SEC to ensure the integrity of the labeled mAb.

Assay [4] deals with T1, human CD3. Description: flow competition on Jurkat, 100 nM unlabeled mAb; competitor AF488-SP34.2 20 nM (self).
Assay [5] has as its target T1, human CD3. Description: apparent KD (KDapp), flow cytometry titration on purified primary human T cells. On the procedure: The binding characteristics of the purified anti-CD3 mAbs were assessed in titration studies on purified human primary T cells from different donor samples. Fresh ex vivo peripheral blood mononuclear cells (PBMCs) were obtained via density centrifugation over Ficoll-Paque using standard procedures and untouched T cell fractions obtained from PBMCs by negative pan-T cell selection and magnetic cell sorting. Starting from 300 nM concentrations of the anti-CD3 mAbs, eight point binding curves were generated from the resultant mean fluorescence intensity (MFI) values obtained through detection of labelled secondary antibody to bound CD3 in flow cytometry experiments (FIGS. 3A and 3B). Both commercial mouse anti-human CD3 mAb (OKT-3; Biolegend) and an in house generated IgG1 version of OKT-3 were employed as positive controls together with a non-specific mouse IgG serving as a negative binding control. Following curve fit analysis using one-site specific binding with Hill slope, the KDapp (concentration needed to achieve a half-maximum binding at equilibrium) for each mAb was calculated (Table 2).
Eight point binding titrations were performed with the anti-CD3 mAbs starting at either 300 or 100 nM on freshly purified human T cells obtained through negative selection from PBMC fractions. Briefly, 1×10⁵ human T cells (50 μL of staining buffer (SB; PBS/1% BSA/0.01% NaN3) were incubated with graded dilutions of the anti-CD3 mAbs in SB ([…]) for 2 hours at 4° C. in 96 w U-bottom plates, followed by plate washing with SB ([…]). Cell pellets were resuspended with 25 μL of a 0.25 mg/mL solution of the goat (Fab′)₂ anti-mouse IgG (H+L)− APC secondary antibody in SB, incubated at 4° C. (30 min.), washed 1× with SB, and resuspended for flow analysis. Recombinant anti-human OKT-3 IgG2b (in house produced) and non-specific mIgG were employed similarly as positive and negative controls respectively. 10K live events were acquired on a BD LSRFortessa flow analyzer and mean fluorescence intensities (MFI) calculated after subtraction of secondary antibody alone values. Using GraphPad Prism software, the data were analyzed using a one site specific binding with Hill slope non-linear regression model to calculate KDapp and BMax values (See Table 2).

A further assay concerns the target T2, Cynomolgus CD3 (Cynomolgus, UniProt Q95LI5 22-198; Q95LI7 23-181; Q95LI8 22-171).
T2 construct: whole, on cells; also called CD3 on Cynomolgus PBMCs; CD3 on HSC-F Cynomolgus T cell line
Description: apparent KD (KDapp), flow cytometry titration on cynomolgus HSC-F T cell line. Here is the method: To characterize potential cross-reactivity of the anti-human CD3 mAbs to NHP T cells, dose response flow cytometry titration studies were performed on both freshly obtained Cynomolgus PBMCs (Comparative Medicine and Animal Resources Centre—McGill University) or the Cynomolgus derived T cell line, HSC-F (Non-Human Primate Reagent Resource—NIH). Binding studies on fresh Cynomolgus PBMCs was performed on a subset of anti-CD3 mAbs (FIG. 4) whereas the Herpesvirus saimiri immortalized Cynomolgus T cell line HSC-F was employed for further evaluations (FIGS. 5A to 5C). KDapp values were calculated using a non-linear regression model of one-site binding with Hill slope (GraphPad Prism) and tabulated (Table 3b). Similar KDapp values for anti-CD3 mAb 1E2 obtained from binding to fresh Cynomolgus PBMCs (KDapp=0.28 nM) or the HSC-F T cell line (KDapp=0.39 nM) indicated the HSC-F cell line was a suitable surrogate for ex vivo NHP T cells.
HSC-F T cells obtained from the Non-Human Primate Reagent Resource (NIH) were maintained in culture in RPMI media containing 20% FBS and 40 IU/mL recombinant human IL2. 100K HSC-F cells in logarithmic cell growth were treated with graded doses of the anti-CD3 mAbs starting at 100 nM in staining buffer (SB; PBS/1% BSA/0.01% NaN3) for 2 hours at 4° C. in 96 w V-bottom plates. Following plate washing with SB, the cell pellets were resuspended with 25 μL of goat (Fab′)₂ anti-mouse IgG (H+L)− APC secondary antibody (final 5 μg/mL), incubated for 30 minutes at 4° C., followed by flow cytometry analysis. The commercial NHP cross-reactive SP34.2 anti-CD3 mAb (BD Biosciences), recombinant anti-human OKT-3 IgG2b (in house produced) and non-specific mIgG were employed as controls. 20K live events were acquired on a BD LSRFortessa flow analyzer and mean fluorescence intensities (MFI) calculated after subtraction of secondary antibody alone values. Using GraphPad Prism software, the data were analyzed using a one site specific binding with Hill slope non-linear regression model to calculate KDapp and BMax values (See Table 2).

The target in assay [6] is T1, human CD3. Description: flow competition on Jurkat, 100 nM unlabeled mAb; competitor AF488-SK7 1.5 nM. Here is the method: as §1, §2

Substance Mouse IgG (antibody) had an MFI with human CD3 [1] of 34 MFI.
Regarding SP34.2 (antibody), the Kd with human CD3 [2] was 10.8 nM; with human CD3 [5] it was 1.77 nM; with Cynomolgus CD3 it was 1.29 nM. The % residual fluorescence of labeled mAb with human CD3 [3] stood at 49%; in the assay with human CD3 [4] it was 10%; with human CD3 [6] it was 29%.
